In patent publication US20160017053A1 (IMMUNOGEN, published 2016):
Blank lines part the entries; values can stand above or below the molecule they belong to.

How the values were obtained:
[1] = target: human EGFR (epidermal growth factor receptor) (human) (UniProt P00533); experiment: flow cytometry, binding curve of the biotinylated ligand on MDA-MB468 cells
[2] = target: T1, human EGFR (epidermal growth factor receptor) (human, UniProt P00533 25-1210); experiment: cell-based or functional assay
[3] = target: T1, human EGFR (epidermal growth factor …); experiment: flow cytometry on MDA-MB468 or A431 cells; EC50 of the curve taken as apparent Kd
[4] = target: T1, human EGFR (epidermal growth factor …); experiment: flow cytometry on MDA-MB468 cells, apparent Kd from non-linear regression of geo mean fluorescence against [Ab] (M)
[5] = target: T1, human EGFR (epidermal growth factor …); experiment: flow cytometry on MDA-MB468 cells

- EC50 [1]: 1.8 nM
Molecule: biotinylated EGF (Invitrogen) (ligand)

B1: chimeric ML66-SMCC-DM1 (antibody, V domains shown)
VH: QVQLKESGPGLVQPSQTLSLTCTVSGLSLASNSVSWIRQPPGKGLEWMGVIWNHGGTDYNSVIKSRLSISRDTSKSQVFLKMNSLQTEDTAMYFCVRKGGIYFDYWGQGVMVTVSS
VL: DTVLTQSPALAVSPGERVTISCRASESVSTLMHWYQQKSGQQPKLLIYLASHRESGVPARFSGSGSGTDFTLTIDPMEADDTATYYCQQSRNDPWTFGGGTNLELK
modifications: Maytansinoid DM1 is linked to the antibody through the non-cleavable SMCC linker. The attachment sites and drug load for chML66 are not stated, and the letters cannot carry them.
- EC50 of cytotoxicity on KB cells with 1 µM naked chML66 antibody blocking [2]: 30 nM
- EC50 of cytotoxicity on KB cells without blocking antibody [2]: 3 nM

- Kd [3]: 2.33 nM
B2: huML66-SMCC-DM1 conjugate (antibody, human IgG1, kappa, V domains shown)
VH: QVQLQESGPGLVKPSETLSLTCTVSGLSLASNSVSWIRQPPGKGLEWMGVIWNHGGTDYNPSIKSRLSISRDTSKSQVFLKMNSLTAADTAMYFCVRKGGIYFDYWGQGVLVTVSS
VL: DTVLTQSPSLAVSPGERATISCRASESVSTLMHWYQQKPGQQPKLLIYLASHRESGVPARFSGSGSGTDFTLTIDPMEAEDTATYYCQQSRNDPWTFGQGTKLELKR
modifications: DM1 linked through SMCC; sites not stated; DM1 linked through SMCC; 3.5-4 DM1 molecules per antibody; sites not stated

- Kd [3]: 2.93 nM
B3: huML66-SPDB-DM4 conjugate (antibody, human IgG1, kappa, V domains shown)
VH: QVQLQESGPGLVKPSETLSLTCTVSGLSLASNSVSWIRQPPGKGLEWMGVIWNHGGTDYNPSIKSRLSISRDTSKSQVFLKMNSLTAADTAMYFCVRKGGIYFDYWGQGVLVTVSS
VL: DTVLTQSPSLAVSPGERATISCRASESVSTLMHWYQQKPGQQPKLLIYLASHRESGVPARFSGSGSGTDFTLTIDPMEAEDTATYYCQQSRNDPWTFGQGTKLELKR
modifications: DM4 linked through SPDB; sites not stated; DM4 linked through SPDB; 3.5-4 DM4 molecules per antibody; sites not stated

- Kd [4]: 1.94 nM
- EC50 (read off the curve) [5]: ~2 nM
B4: rat ML66 antibody (antibody, V domains shown)
VH: QVQLKESGPGLVQPSQTLSLTCTVSGLSLASNSVSWIRQPPGKGLEWMGVIWNHGGTDYNSVIKSRLSISRDTSKSQVFLKMNSLQTEDTAMYFCVRKGGIYFDYWGQGVMVTVSS
VL: DTVLTQSPALAVSPGERVTISCRASESVSTLMHWYQQKSGQQPKLLIYLASHRESGVPARFSGSGSGTDFTLTIDPMEADDTATYYCQQSRNDPWTFGGGTNLELKR
notes: Rat monoclonal antibody purified from hybridoma

- Kd [4]: 1.23 nM
- Kd [3]: 1.12 nM
- EC50 (read off the curve) [5]: ~1 nM
B5: humanized ML66 (huML66) antibody (antibody, human IgG1, kappa, V domains shown)
VH: QVQLQESGPGLVKPSETLSLTCTVSGLSLASNSVSWIRQPPGKGLEWMGVIWNHGGTDYNPSIKSRLSISRDTSKSQVFLKMNSLTAADTAMYFCVRKGGIYFDYWGQGVLVTVSS
VL: DTVLTQSPSLAVSPGERATISCRASESVSTLMHWYQQKPGQQPKLLIYLASHRESGVPARFSGSGSGTDFTLTIDPMEAEDTATYYCQQSRNDPWTFGQGTKLELKR

- Kd [3]: 4.54 nM
B6: muEGFR-8-SMCC-DM1 conjugate (antibody, V domains shown)
VH: EVQLQQSGAELVKPGASVKLSCTTSGFNIKDTYIHWVKKRPEQGLEWIGRIDPTNGNNKYDPKFQGKATITADTSSNTAYLQLSSLTSEDTAVYYCTREDGYRYDDWYFDVWGAGTTVTVSS
VL: QIVLTQSPASMSASPGEKVTMTCSASSSVSYMHWYQQKSGTSPKRWIYATSKLASGVPARFSGSGSGTSYSLTISSMEAEDAATYYCQQWSSNPLTFGAGTKLELKR
modifications: DM1 linked through SMCC to the antibody; drug load and sites not stated
notes: Maytansinoid conjugate of the whole murine EGFR-8 antibody; its preparation is not described separately
- EC50 of in vitro cytotoxicity on NCI-H226 cells (WST-8) [2]: 0.68 nM
- EC50 of in vitro cytotoxicity on NCI-H292 cells (WST-8) [2]: 0.43 nM
- EC50 of in vitro cytotoxicity on NCI-H322M cells (WST-8) [2]: 3.07 nM

- Kd [3]: 1.43 nM
B7: murine EGFR-8 antibody (antibody, V domains shown)
VH: EVQLQQSGAELVKPGASVKLSCTTSGFNIKDTYIHWVKKRPEQGLEWIGRIDPTNGNNKYDPKFQGKATITADTSSNTAYLQLSSLTSEDTAVYYCTREDGYRYDDWYFDVWGAGTTVTVSS
VL: QIVLTQSPASMSASPGEKVTMTCSASSSVSYMHWYQQKSGTSPKRWIYATSKLASGVPARFSGSGSGTSYSLTISSMEAEDAATYYCQQWSSNPLTFGAGTKLELKR
notes: Mouse monoclonal antibody purified from hybridoma; also called muEGFR-8
